Laboratory results: patent publication US20140303084
Substitutions are numbered along the chain they refer to.

Experiments:
rRAAGKLTCLASYCWLAATGIA = tested on: T1, rRAAGKLTCLASYCWLAATGIA
T1 sequence: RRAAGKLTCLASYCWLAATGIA

[1] = tested on: T2, Palmitoyl-(PEG)27(PEG)27-KLTCLASYCWLF
T2 sequence: KLTCLASYCWLF

[2] = tested on: T3, RRAPGKLTCLASYCWLF WTGLA PGRGQGGVAG
T3 sequence: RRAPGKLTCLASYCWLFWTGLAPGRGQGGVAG

[3] = tested on: T4, GRAMAAEPWP RQAPG KLTCLASYCWLFWTGIA
T4 sequence: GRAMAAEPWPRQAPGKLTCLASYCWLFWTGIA

KLTCLA-HSe-YCWLF = tested on: T5, KLTCLA-HSe-YCWLF
T5 sequence: KLTCLAXYCWLF

KLTCLASYCWIF = tested on: T6, KLTCLASYCWIF
T6 sequence: KLTCLASYCWLF

[4] = tested on: T7, RRAPGKLT-Dab-LASY-Asp-WLFWTGIA-COOH
T7 sequence: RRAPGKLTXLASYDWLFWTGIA

[5] = tested on: T8, WRAGLDESQR DRAPG KLTCLASYCWLFWTGIA
T8 sequence: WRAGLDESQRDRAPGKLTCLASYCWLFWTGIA

[6] = tested on: T9, CGGG-RRAPGKLT-Asp-LASY-Lys-WLFWTGIA
T9 sequence: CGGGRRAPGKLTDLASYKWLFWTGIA

LRQRLAKTCVASYCWLFSLVAS = tested on: T10, LRQRLAKTCVASYCWLFSLVAS
T10 sequence: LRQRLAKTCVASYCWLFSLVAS

[7] = tested on: T11, RRAPGK(PEG2-Biotin)LTCLASYCWLFWTGIA
T11 sequence: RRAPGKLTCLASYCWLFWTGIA

[8] = tested on: T12, RRAPGKLTCLASYCWL-MePhe-WTGIA
T12 sequence: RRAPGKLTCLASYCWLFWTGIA

rRAPGKLTCLASSCWLFWTGIA = tested on: T13, rRAPGKLTCLASSCWLFWTGIA
T13 sequence: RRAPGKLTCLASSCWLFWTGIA

[9] = tested on: T14, RRAPGKLQCLASYCWLFWTG-(1-Nal)-A
T14 sequence: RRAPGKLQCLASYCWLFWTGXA

KLT-Dap-LASY-Glu-WLF = tested on: T15, KLT-Dap-LASY-Glu-WLF
T15 sequence: KLTXLASYEWLF

[10] = tested on: T16, SRIrTVSPGSrSASGKSTCLASYCWLFWTGIA
T16 sequence: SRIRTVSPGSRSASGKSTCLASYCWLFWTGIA

[11] = tested on: T17, RRAPGKLQCLASYCWLFWTGIAAAAGAP
T17 sequence: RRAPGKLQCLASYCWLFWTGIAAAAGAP

KLTCLASY-HCy-WLF = tested on: T18, KLTCLASY-HCy-WLF
T18 sequence: KLTCLASYXWLF

compound 25 = tested on: T19, compound 25
T19 sequence: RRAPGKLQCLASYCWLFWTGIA

[12] = tested on: T20, RRAPGKLTCLASYCWLF ATGVT FPQIWAIPSP
T20 sequence: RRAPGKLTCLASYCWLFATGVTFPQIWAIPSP

GDSGRKLSCLGSYCWLSVQFMA = tested on: T21, GDSGRKLSCLGSYCWLSVQFMA
T21 sequence: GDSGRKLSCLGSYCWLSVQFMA

[13] = tested on: T22, SKQGRPISPDrRAAGKLTCLASYCWLFW
T22 sequence: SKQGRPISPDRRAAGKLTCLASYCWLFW

[14] = tested on: T23, PRIRTVGPGSRSASGKLTCFASYCWLFWTGIA
T23 sequence: T16 sequence with S1P, S7G, S17L, L20F

[15] = tested on: T24, CRRAPGKLQCLASYCWLFWTGIAGGSGGC
T24 sequence: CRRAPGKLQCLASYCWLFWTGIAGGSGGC

KLSCQAGQCWVF = tested on: T25, KLSCQAGQCWVF
T25 sequence: KLSCQAGQCWVF

KRAPGKLQCLASYCWLFWTGIA = tested on: T26, KRAPGKLQCLASYCWLFWTGIA
T26 sequence: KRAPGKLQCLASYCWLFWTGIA

[16] = tested on: T27, NGALGFRSVV PRAAG KLTCLASYCWLFWTGIA
T27 sequence: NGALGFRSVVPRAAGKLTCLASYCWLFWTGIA

GASGRRRTCVASYCLLFQSGLP = tested on: T28, GASGRRRTCVASYCLLFQSGLP
T28 sequence: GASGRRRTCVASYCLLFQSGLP

rRASGKLTCLASYCWLFWTGIA = tested on: T29, rRASGKLTCLASYCWLFWTGIA
T29 sequence: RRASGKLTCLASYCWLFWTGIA

[17] = tested on: T30, PRIRTVGPGSRSASGKLTCAASYCWLFWTGIA
T30 sequence: T16 sequence with S1P, S7G, S17L, L20A

[18] = tested on: T31, SKQGRPISSDrRAAGKLTCLASYCWLFWTGIA
T31 sequence: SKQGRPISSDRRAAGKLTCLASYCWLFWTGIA

RRAPGKLTCLASYCWLfWTGIA [19] = tested on: T32, RRAPGKLTCLASYCWLfWTGIA
T32 sequence: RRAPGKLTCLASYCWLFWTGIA

APGKLQCLASYCWLFWTGIA = tested on: T33, APGKLQCLASYCWLFWTGIA
T33 sequence: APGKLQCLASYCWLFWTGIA

[20] = tested on: T34, Glu(Biotinyl-PEG)-RAPGKLTCLASYCWLFWTGIA
T34 sequence: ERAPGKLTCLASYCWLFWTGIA

[21] = tested on: T35, AKQGRPISPDrRAAGKLTCLASYCWLFWTGIA
T35 sequence: T31 sequence with S1A, S9P

compound 6 = tested on: T36, compound 6
T36 sequence: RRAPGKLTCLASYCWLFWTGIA

R-k-MeLeu-TCLASYCWLF = tested on: T37, R-k-MeLeu-TCLASYCWLF
T37 sequence: RKLTCLASYCWLF

[22] = tested on: T38, RRK(PEG2-Biotin)PGKLTCLASYCWLFWTGIA
T38 sequence: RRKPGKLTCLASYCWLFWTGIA

[23] = tested on: T39, PRIRSVGPGSRSASGKLTCLASYCWLFWTGIA
T39 sequence: T16 sequence with S1P, T5S, S7G, S17L

RRaPGKLTCLASYCWLFWTGIA [24] = tested on: T40, RRaPGKLTCLASYCWLFWTGIA
T40 sequence: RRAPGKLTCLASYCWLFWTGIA

[25] = tested on: T41, AIGTWFLWCYSALCTLKGPARR (retro)
T41 sequence: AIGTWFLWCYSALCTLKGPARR

RRAPGKLQCLASYCWLFWTGFA = tested on: T42, RRAPGKLQCLASYCWLFWTGFA
T42 sequence: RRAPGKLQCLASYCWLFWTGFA

[26] = tested on: T43, PRIRTVGPGSRRASGKLTCLASYCWLFWTGIA
T43 sequence: T16 sequence with S1P, S7G, S12R, S17L

KLTCLAAYCWLF = tested on: T44, KLTCLAAYCWLF
T44 sequence: KLTCLAAYCWLF

KLTCLASYCwLF = tested on: T45, KLTCLASYCwLF
T45 sequence: KLTCLASYCWLF

[27] = tested on: T46, RRAPGKCTALASYCWLFWTGIA-COOH
T46 sequence: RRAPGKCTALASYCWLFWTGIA

ALTCLASYCWLF = tested on: T47, ALTCLASYCWLF
T47 sequence: ALTCLASYCWLF

[28] = tested on: T48, SKQGRPISADrRAAGKLTCLASYCWLFWTGIA
T48 sequence: T31 sequence with S9A

[29] = tested on: T49, rRAPGKLTCLASYCWLFWTGIA-PEG16-Lys(PEG2-Biotin)-PEG16
T49 sequence: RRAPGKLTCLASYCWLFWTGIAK

Q: For human Factor IXa, which Vmax, FXa generation assay (rRAAGKLTCLASYCWLAATGIA) is on record?
A: > 0.8

Q: What about the Vmax, FXa generation assay [1] of the same substance?
A: > 0.3

Q: And the Vmax, FXa generation assay [2]?
A: > 3

Q: And the Vmax, FXa generation assay [3]?
A: > 2

Q: What about the “Vmax, FXa generation assay; (++) means 1-2” value (shortened to “Vmax … (++) means 1-2”) (KLTCLA-HSe-YCWLF) of the same substance?
A: (++)

Q: And the Vmax, FXa generation assay (KLTCLASYCWIF)?
A: > 3

Q: What about the “Vmax … (++) means 1-2” value [4] of the same substance?
A: (++)

Q: What about the “Vmax … (++) means 1-2” value [5] of the same substance?
A: (++)

Q: What about the Vmax, FXa generation assay [6] of the same substance?
A: > 2

Q: What about the Vmax, FXa generation assay (LRQRLAKTCVASYCWLFSLVAS) of the same substance?
A: > 1.5

Q: What about the “Vmax … (++) means 1-2” value [7] of the same substance?
A: (++)

Q: And the Vmax, FXa generation assay [8]?
A: > 2

Q: And the “Vmax … (++) means 1-2” value (rRAPGKLTCLASSCWLFWTGIA)?
A: (++)

Q: What about the Vmax, FXa generation assay [9] of the same substance?
A: > 2

Q: And the “Vmax … (++) means 1-2” value (KLT-Dap-LASY-Glu-WLF)?
A: (++)

Q: And the Vmax, FXa generation assay [10]?
A: > 3

Q: What about the “Vmax … (++) means 1-2” value [11] of the same substance?
A: (++)

Q: What about the Vmax, FXa generation assay (KLTCLASY-HCy-WLF) of the same substance?
A: > 3

Q: And the Vmax, FXa generation assay with hFIXa (compound 25)?
A: > 2

Q: And the Vmax, FXa generation assay [12]?
A: > 3

Q: And the “Vmax … (++) means 1-2” value (GDSGRKLSCLGSYCWLSVQFMA)?
A: (++)

Q: What about the Vmax, FXa generation assay [13] of the same substance?
A: > 3

Q: What about the Vmax, FXa generation assay [14] of the same substance?
A: > 2

Q: And the Vmax, FXa generation assay [15]?
A: > 2

Q: And the Vmax, FXa generation assay (KLSCQAGQCWVF)?
A: > 2

Q: And the Vmax, FXa generation assay (KRAPGKLQCLASYCWLFWTGIA)?
A: > 2

Q: And the Vmax, FXa generation assay [16]?
A: > 2

Q: And the Vmax, FXa generation assay (GASGRRRTCVASYCLLFQSGLP)?
A: > 0.1

Q: What about the “Vmax … (++) means 1-2” value (rRASGKLTCLASYCWLFWTGIA) of the same substance?
A: (++)

Q: And the Vmax, FXa generation assay [17]?
A: > 2

Q: And the Vmax, FXa generation assay [18]?
A: > 3

Q: And the “Vmax … (++) means 1-2” value (RRAPGKLTCLASYCWLfWTGIA [19])?
A: (++)

Q: And the “Vmax … (++) means 1-2” value (APGKLQCLASYCWLFWTGIA)?
A: (++)

Q: What about the Vmax, FXa generation assay [20] of the same substance?
A: > 0.8

Q: And the Vmax, FXa generation assay [21]?
A: > 3

Q: What about the Vmax, FXa generation assay with hFIXa (compound 6) of the same substance?
A: > 2

Q: And the Vmax, FXa generation assay (R-k-MeLeu-TCLASYCWLF)?
A: > 3

Q: And the “Vmax … (++) means 1-2” value [22]?
A: (++)

Q: What about the Vmax, FXa generation assay [23] of the same substance?
A: > 3

Q: What about the “Vmax … (++) means 1-2” value (RRaPGKLTCLASYCWLFWTGIA [24]) of the same substance?
A: (++)

Q: What about the “Vmax … (++) means 1-2” value [25] of the same substance?
A: (++)

Q: And the Vmax, FXa generation assay (RRAPGKLQCLASYCWLFWTGFA)?
A: > 2

Q: What about the Vmax, FXa generation assay [26] of the same substance?
A: > 3

Q: What about the “Vmax … (++) means 1-2” value (KLTCLAAYCWLF) of the same substance?
A: (++)

Q: What about the Vmax, FXa generation assay (KLTCLASYCwLF) of the same substance?
A: > 3

Q: What about the “Vmax … (++) means 1-2” value [27] of the same substance?
A: (++)

Q: And the “Vmax … (++) means 1-2” value (ALTCLASYCWLF)?
A: (++)

Q: What about the Vmax, FXa generation assay [28] of the same substance?
A: > 3

Q: And the Vmax, FXa generation assay [29]?
A: > 3
